The results in this text go back to EP4596582A1 (Sichuan Kelun-Biotech Biopharmaceutical Co., Ltd., dated 2025).

For assay [1], the target named is T1, human B7-H3 on human tumor cells (MCF-7, HT29, NCI-N87, HCC1806, HCC827) (human, UniProt Q5ZPR3 29-534).
T1 construct: whole, on cells
T1 sequence (looked up): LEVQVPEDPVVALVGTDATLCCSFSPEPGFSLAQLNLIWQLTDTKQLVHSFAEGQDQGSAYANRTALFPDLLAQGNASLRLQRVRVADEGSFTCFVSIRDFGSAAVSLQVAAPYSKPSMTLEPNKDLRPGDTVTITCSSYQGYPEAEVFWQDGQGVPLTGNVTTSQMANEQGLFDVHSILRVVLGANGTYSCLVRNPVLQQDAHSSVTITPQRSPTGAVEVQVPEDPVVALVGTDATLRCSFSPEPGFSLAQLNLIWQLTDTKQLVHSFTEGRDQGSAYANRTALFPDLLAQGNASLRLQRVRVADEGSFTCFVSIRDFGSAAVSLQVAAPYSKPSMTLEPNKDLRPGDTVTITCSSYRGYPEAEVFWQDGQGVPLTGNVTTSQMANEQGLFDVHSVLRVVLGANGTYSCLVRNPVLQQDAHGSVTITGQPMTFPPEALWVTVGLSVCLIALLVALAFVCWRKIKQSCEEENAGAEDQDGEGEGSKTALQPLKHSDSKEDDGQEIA
As to the kind of experiment: flow cytometry on HCC827 cells. (In general: In flow cytometry, cells or beads pass a laser one at a time.)

Assay [2] has as its target T1, human B7-H3 on human tumor cells …. As to the kind of experiment: flow cytometry on NCI-N87 cells.

B1: anti-human-B7-H3 human antibody 2#8890 (antibody, human IgG1, kappa, V domains shown)
VH: QVQLQESGPGLVQPSGTLSLTCAVSGGSDSSTNWWTWVRQSPGQGLEWIGEISPIGFTSYSPSLRSRVTISVDKSKTQFSLKLSSVTAADTAVYYCARDRLYFAFWGQGTLVTVSS
VL: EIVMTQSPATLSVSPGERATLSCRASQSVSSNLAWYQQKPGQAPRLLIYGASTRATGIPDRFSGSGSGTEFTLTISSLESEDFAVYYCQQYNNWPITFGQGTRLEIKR
By EC50 is commonly meant the concentration that produces a half-maximal response. A low value points to a more potent agent. B1: the EC50 in assay [1] is 12.3 ng/mL; in assay [2], 5.77 ng/mL.
